This is an account of results in patent US20230416329A1 (INSTITUTE OF MATERIA MEDICA CHINESE ACADEMY OF MEDICAL …, published 2023).

The experiment concerns the target bovine trypsin (bovine, UniProt P00760 24-246). Nature of the experiment: trypsin inhibition, BApNA substrate. As for the experimental part: The substrates N-succinyl-Ala-Ala-Pro-Phe-p-nitroaniline (AAPFpNA), Nα—Benzoyl-L-arginine-4-nitroaniline hydrochloride (BApNA) and N-succinyl-[…] (AAApNA) are used in competitive binding reaction to determine the inhibitory activities against α-chymotrypsin, bovine trypsin, and porcine pancreatic elastase, respectively. Experiments for α-chymotrypsin and bovine trypsin inhibition were measured in 20 mM CaCl₂, 50 mM Tris-HCl buffer (pH 7.8), and that for porcine elastase inhibition was measured in 50 mM Tris-HCl buffer (pH 8.0). The concentration of the peptide was measured using optical density (OD) at 280 nm. The Michaelis constant (Kₘ) of the enzyme hydrolysis substrate is calculated from the initial rate of substrate hydrolysis at 405 nm. The absorbance value of the substrate was measured at 405 nm after complete hydrolysis. All data were processed using nonlinear regression.
(1) Added a total 190 μL of reaction buffer (20 mM CaCl₂ and 50 mM Tris-HCl, pH 7.8) along with different concentrations of anti-trypsin peptides (BTs) into the pre-cooled 96-well plate, followed by preheating at 37° C., and spined down at 500 rpm for 5 min. Next added 10 μL of 1 μM trypsin, incubated at 37° C., and then spined down at 500 rpm for 10 min. Finally, added 5 μL of 50 mM BApNA, and mixed by centrifugation at 500 rpm for 1 min. […] The experiment was performed in triplicate. The blank control only contained the reaction buffer and the substrate as the minimum absorption value (Min OD_{405 nm}). The negative control only contained the reaction buffer, the enzyme and the substrate as the maximum absorption value (Max OD_{405 nm}). […] (2) In the reaction system of 205 μL, the final concentrations of trypsin and BApNA were 50 nM and 1.22 mM, respectively. [0456] (3) Data statistics

Bridge positions count the residues as written; N and C are the ends. Ends that are not written are not given here.

Chain of bovine trypsin (P00760 24-246): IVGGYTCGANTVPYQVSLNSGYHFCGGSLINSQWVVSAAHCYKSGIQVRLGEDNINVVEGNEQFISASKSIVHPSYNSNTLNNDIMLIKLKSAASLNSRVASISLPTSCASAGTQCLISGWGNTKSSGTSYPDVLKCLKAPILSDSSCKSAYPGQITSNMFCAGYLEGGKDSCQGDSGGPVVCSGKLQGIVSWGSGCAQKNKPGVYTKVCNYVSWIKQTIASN

As usually defined, the IC50 is the concentration at which inhibition is half-maximal. Low readings indicate greater potency in that assay, high ones weaker potency in that assay. Broadly, the Ki is a dissociation constant, usually derived from enzyme kinetics or from competition with a known ligand. CGRATKSIPPICFPD (disulfide 1-12 (inferred)) [BT5]: the IC50 was 160 nM and the Ki stood at 30 nM.
On the same counts, the results for CGAATKSIPPICFPD (disulfide 1-12 (inferred)) [BT7] are 230 nM and 50 nM.
On the same counts, the results for CGSATKSIPPICFPD (disulfide 1-12 (inferred)) [BT6] are 290 nM and 60 nM.
On the same counts, the results for CGRATKSIPPICF (disulfide 1-12 (inferred)) [BT9] are 70 nM and 10 nM.
As to CGRYTKSIPPICF (disulfide 1-12 (inferred)) [BT53], the IC50 stood at 120 nM and affinity was put at a Ki of 30 nM.
As to CGRATRSIPPICA (disulfide 1-12 (inferred)) [BT19], the IC50 came out at 43400 nM and the Ki was 9250 nM.
On the same counts, the results for CARATKSIPPICF (disulfide 1-12 (inferred)) [BT67] are 50 nM and 10 nM.
CGRETKSIPPICF (disulfide 1-12 (inferred)) [BT58] returned an IC50 of 120 nM and a Ki of 30 nM.
On the same counts, the results for CERATKSIPPICF (disulfide 1-12 (inferred)) [BT78] are 30 nM and 6.4 nM.
Consider CGRATRSIPPACF (disulfide 1-12 (inferred)) [BT15], for which 4490 nM corresponded to half-maximal inhibition (IC50) and the inhibition constant Ki worked out at 960 nM.
As to CLRATKSIPPICF (disulfide 1-12 (inferred)) [BT72], inhibition was half-maximal at 130 nM (IC50) and the Ki stood at 30 nM.
As for CGRNTKSIPPICF (disulfide 1-12 (inferred)) [BT55], the concentration for half-maximal inhibition (IC50) stood at 300 nM and the affinity corresponds to a Ki of 60 nM.
Consider CGRFTKSIPPICF (disulfide 1-12 (inferred)) [BT52], for which 130 nM corresponded to half-maximal inhibition (IC50) and the Ki was found to be 30 nM.
On the same counts, the results for CSRATKSIPPICF (disulfide 1-12 (inferred)) [BT75] are 40 nM and 8.5 nM.
The molecule CGRITKSIPPICF (disulfide 1-12 (inferred)) [BT49] returned an IC50 of 500 nM and a Ki of 110 nM.
Taken in the same sequence, the figures for CGRGTKSIPPICF (disulfide 1-12 (inferred)) [BT60] were 430 nM and 90 nM.
Taken in the same sequence, the figures for CGRATKSIPAICF (disulfide 1-12 (inferred)) [BT10] were 110 nM and 20 nM.
On the same counts, the results for CGRLTKSIPPICF (disulfide 1-12 (inferred)) [BT48] are 180 nM and 40 nM.
Consider CIRATKSIPPICF (disulfide 1-12 (inferred)) [BT73], for which 120 nM corresponded to half-maximal inhibition (IC50) and the inhibition constant Ki came out at 30 nM.
The molecule CGRATKSLPAICF (disulfide 1-12 (inferred)) [BT16] returned an IC50 of 910 nM and a Ki of 190 nM.
Consider CGRATRAIPPICF (disulfide 1-12 (inferred)) [BT22], for which half-maximal inhibition (IC50) required 4680 nM and the Ki amounted to 1000 nM.
On the same counts, the results for CGRVTKSIPPICF (disulfide 1-12 (inferred)) [BT51] are 410 nM and 90 nM.
Taken in the same sequence, the figures for CGRQTKSIPPICF (disulfide 1-12 (inferred)) [BT54] were 60 nM and 10 nM.
The molecule CGRWTKSIPPICF (disulfide 1-12 (inferred)) [BT57] had an IC50 of 130 nM and a Ki of 30 nM.
With CGRSTKSIPPICF (disulfide 1-12 (inferred)) [BT47], inhibition was half-maximal at 50 nM (IC50) and the Ki amounted to 10 nM.
On the same counts, the results for CKRATKSIPPICF (disulfide 1-12 (inferred)) [BT77] are 40 nM and 8.5 nM.
As to CGRATRSIPPICY (disulfide 1-12 (inferred)) [BT18], the midpoint of inhibition, the IC50, lay at 39400 nM and the Ki was found to be 8380 nM.
CRRATKSIPPICF (disulfide 1-12 (inferred)) [BT76] came in with a half-inhibitory concentration (IC50) of 50 nM and a Ki of 10 nM.
The molecule CGRATRSAPPICF (disulfide 1-12 (inferred)) [BT21] gave a concentration for half-maximal inhibition (IC50) of 18100 nM and a Ki of 3850 nM.
Take CGRHTKSIPPICF (disulfide 1-12 (inferred)) [BT56]: the IC50 is 110 nM and the Ki worked out at 20 nM.
On the same counts, the results for CGTATKSIPPICN (disulfide 1-12 (inferred)) [BT24] are 33900 nM and 7220 nM.
Taken in the same sequence, the figures for CGTATKSIPPICF (disulfide 1-12 (inferred)) [BT25] were 970 nM and 210 nM.
CGRATKAIPPICF (disulfide 1-12 (inferred)) [BT27] registered an IC50 of 280 nM and an inhibition constant (Ki) of 60 nM.
On the same counts, the results for CGRPTKSIPPICF (disulfide 1-12 (inferred)) [BT59] are 26300 nM and 5590 nM.
On the same counts, the results for CVRATKSIPPICF (disulfide 1-12 (inferred)) [BT71] are 110 nM and 20 nM.
Consider CGRATRSIPPICF (disulfide 1-12 (inferred)) [BT17], for which the IC50 worked out at 580 nM, the Ki was 120 nM and the “fold decrease in inhibitory activity compared to BT9” value was approximately 12 fold.
In turn, CQRATKSIPPICF (disulfide 1-12 (inferred)) [BT79] had an IC50 of 50 nM and a Ki of 10 nM.
Taken in the same sequence, the figures for CPRATKSIPPICF (disulfide 1-12 (inferred)) [BT66] were 60 nM and 10 nM.
Take CGRAAKSIPPICF (disulfide 1-12 (inferred)) [BT26]: the concentration for half-maximal inhibition (IC50) turned out to be 2500 nM and the Ki came to 530 nM.
Regarding RCTRSIPPHCW (disulfide 2-10 (inferred)) [BT61], the 50% inhibitory concentration (IC50) was found to be 890 nM and the Ki turned out to be 190 nM.
